This assay concerns the target T1, murine FSHR (murine, UniProt P35378 18-692).
T1 construct: whole, on cells; also called mouse FSHR
T1 sequence (looked up): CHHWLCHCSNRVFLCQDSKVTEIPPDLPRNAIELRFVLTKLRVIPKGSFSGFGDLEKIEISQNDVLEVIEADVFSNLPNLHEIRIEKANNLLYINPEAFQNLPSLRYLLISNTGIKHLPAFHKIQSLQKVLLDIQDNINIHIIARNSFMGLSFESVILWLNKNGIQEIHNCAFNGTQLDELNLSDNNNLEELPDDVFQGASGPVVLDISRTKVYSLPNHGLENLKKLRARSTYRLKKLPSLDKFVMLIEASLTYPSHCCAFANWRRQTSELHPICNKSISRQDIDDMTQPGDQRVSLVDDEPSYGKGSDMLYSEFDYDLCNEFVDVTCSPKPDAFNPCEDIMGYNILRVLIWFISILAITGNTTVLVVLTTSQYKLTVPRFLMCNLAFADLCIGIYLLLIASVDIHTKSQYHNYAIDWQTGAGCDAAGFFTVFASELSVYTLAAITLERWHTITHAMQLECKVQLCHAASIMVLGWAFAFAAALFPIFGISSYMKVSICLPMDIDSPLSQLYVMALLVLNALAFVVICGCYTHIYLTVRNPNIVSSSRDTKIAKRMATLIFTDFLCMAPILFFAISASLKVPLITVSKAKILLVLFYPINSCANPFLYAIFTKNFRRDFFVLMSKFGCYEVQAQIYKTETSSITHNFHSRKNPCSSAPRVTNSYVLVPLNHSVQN
The assay is described as follows: immunofluorescence, 293T cells transiently transduced with murine FSHR. An excerpt:
The use of 9H11 for staining FSHR in immunocytochemistry through immunofluorescence was validated.

B1: 9H11 monoclonal antibody (murine, original) (antibody, mouse IgG2a, kappa, V domains shown)
VH: QVNLKESGPGILQPSQTLNLTCSFSGFSLSTSGMGVGWIRQPSGKGLDWLAHIWWDDDKRYNPALKSRLTISKDASSNQVFLKIASVVTADTATYYCVQINYGNYRFDNWGHGTTLTVSS
VL: not shown
notes: Mouse hybridoma antibody; also called murine monoclonal antibody 9H11; 9H11 antibody
With B1, the binding result is recorded as “binds”.

These data come from patent US20210340263A1 (WISTAR INSTITUTE, published 2021).
